The labels stand for the following.
B1: TN8-8 (N) (peptide)
chain: MGAQKRPCEEMWGGCNYDLEGGGGGX
modifications: not fully specified (C-terminus, bridges); printed as MGAQ-KRPCEEMWGGCNYDLEGGGGG-Fc; cysteine pairing not given here
B2: Con1 (N) (peptide)
chain: MGAQKRPCEEIFGGCTYQLEGGGGG[Fc]
modifications: not fully specified (bridges); printed as MGAQ-KRPCEEIFGGCTYQLEGGGGG-Fc; cysteine pairing not given here; also: Fc fusion domain at position 26
B3: C17 (N) (peptide)
chain: MGAQQYGCDGFLYGCMINLEGGGGG[Fc(7)]
modifications: not fully specified (bridges); printed as MGAQ-QYGCDGFLYGCMINLE-GGGGG-Fc; cysteine pairing not given here; also: Fc fusion domain at position 26
B4: TN8-14 (N) (peptide)
chain: MGAQHQICKWDPWTCKHWLEGGGGGX
modifications: not fully specified (C-terminus, bridges); printed as MGAQ-HQICKWDPWTCKHWLEGGGGG-Fc; cysteine pairing not given here
B5: 2xL1 (N) (designed binder)
chain: MGAQKFNPLDELEETLYEQFTFQQGGGGGGGGKFNPLDELEETLYEQFTFQQLEGGGGG[Fc(7)]
B6: Con4 (N) 1K-WT (peptide)
chain: MQEECEWDPWTCEHMGSGSATGGSGSTASSGSGSATHLEGGGGG[Fc]
modifications: not fully specified (bridges); cysteine pairing not given here; also: Fc fusion domain at position 45
B7: L1-11 (N) (peptide)
chain: MGAQQNFKPMDELEDTLYKQFLFQHSLEGGGGG[Fc(3)]
B8: L1-12 (N) (peptide)
chain: MGAQYKFTPLDDLEQTLYEQWTLQHVLEGGGGG[Fc(3)]
B9: 12-9-2 (C) (peptide)
chain: M[Fc(7)]GGGGGAQKLEYCDGMEDPFTQGCDNQSLE
modifications: not fully specified (bridges); cysteine pairing not given here
B10: L1-C3 (N) (peptide)
chain: MGAQTNFQPLDELDQTLYEQWTLQQRLEGGGGG-Fc
B11: 12-9-4 (C) (peptide)
chain: M[Fc(7)]GGGGGAQAQDYCEGMEDPFTFGCEMQKLE
modifications: not fully specified (bridges); cysteine pairing not given here
B12: L1-C2 (N) (peptide)
chain: MGAQTKFQPLDELDQTLYEQWTLQQRLEGGGGG-Fc
B13: L1-2 (N) (peptide)
chain: MGAQLNFTPLDELEQTLYEQWTLQQSLEGGGGG[Fc(3)]
B14: L1-15 (N) (peptide)
chain: MGAQQKYQPLDELDKTLYDQFMLQQGLEGGGGG[Fc(3)]
B15: Con1-6 (C) (peptide)
chain: M[Fc]GGGGGAQGQDLRPCEDMFGCGTKDWYGLE
modifications: not fully specified (bridges); cysteine pairing not given here; also: Fc fusion domain at position 2
B16: 12-9-C2 (C) (peptide)
chain: M[Fc(7)]GGGGGAQLQDYCEGVEDPFTFGCENQRLE
modifications: not fully specified (bridges); cysteine pairing not given here
B17: 12-9-C1 (C) (peptide)
chain: M[Fc(7)]GGGGGAQLQDYCEGVEDPFTFGCEKQRLE
modifications: not fully specified (bridges); cysteine pairing not given here
B18: 12-9 (C) (peptide)
chain: M[Fc(7)]GGGGGAQFDYCEGVEDPFTFGCDNHLE
modifications: not fully specified (bridges); cysteine pairing not given here
B19: AC6-L1 (N) (peptide)
chain: MGAQTNYKPLDELDATLYEHWILQHSLEGGGGG[Fc(7)]
B20: 12-9-6 (C) (peptide)
chain: M[Fc(7)]GGGGGAQHQEYCEGMEDPFTFGCEYQGLE
modifications: not fully specified (bridges); cysteine pairing not given here
B21: 12-9-5 (C) (peptide)
chain: M[Fc(7)]GGGGGAQLLDYCEGVQDPFTFGCENLDLE
modifications: not fully specified (bridges); cysteine pairing not given here
B22: L1-3 (N) (peptide)
chain: MGAQTKFNPLDELEQTLYEQWTLQHQLEGGGGG-{Fc″}
B23: Con1-2 (C) (peptide)
chain: M[Fc]GGGGGAQQTWDDPCMHILGPVTWRRCILE
modifications: not fully specified (bridges); cysteine pairing not given here; also: Fc fusion domain at position 2
B24: L1-9 (N) (peptide)
chain: MGAQSKFKPLDELEQTLYEQWTLQHALEGGGGG-Fc
B25: L1-13 (N) (peptide)
chain: MGAQQEYEPLDELDETLYNQWMFHQRLEGGGGG[Fc(3)]
B26: L1-22 (N) (peptide)
chain: MGAQYKFNPMDELEQTLYEEFLFQHALEGGGGG-{Fc″}

Primed or numbered codes have the meaning given here. Where no end group is shown, it is not given here. [ ]: non-standard residue; d: D form. Fc(3) = Fc: non-antigen-binding fragment of an antibody from proteolytic digestion of a whole antibody (vehicle); Fc = immunoglobulin Fc domain fused to the peptide (peptibody); Fc(7) = Fc domain, peptide fused N- or C-terminal to it; Fc″ = Fc domain of the peptibody fusion A value given as a limit tells only on which side of the number the result lay.

The target of one assay is T1, mouse Ang-2 (mouse, UniProt O35608).
T1 chain: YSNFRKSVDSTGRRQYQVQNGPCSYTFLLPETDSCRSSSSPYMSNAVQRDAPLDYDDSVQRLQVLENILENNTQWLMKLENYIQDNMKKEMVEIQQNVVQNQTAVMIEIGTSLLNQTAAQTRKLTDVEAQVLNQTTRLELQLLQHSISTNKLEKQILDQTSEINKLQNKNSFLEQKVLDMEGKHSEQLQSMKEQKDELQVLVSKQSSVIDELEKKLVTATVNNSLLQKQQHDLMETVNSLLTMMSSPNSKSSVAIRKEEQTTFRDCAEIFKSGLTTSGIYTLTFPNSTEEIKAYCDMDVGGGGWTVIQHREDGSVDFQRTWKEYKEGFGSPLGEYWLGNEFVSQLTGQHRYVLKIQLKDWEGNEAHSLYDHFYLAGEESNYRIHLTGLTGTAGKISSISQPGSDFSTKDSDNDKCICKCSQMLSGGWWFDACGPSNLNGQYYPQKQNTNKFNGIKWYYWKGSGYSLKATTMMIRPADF
The experiment in a line: competition ELISA vs Tie-2.
As a reminder, the IC50 is the concentration that gives 50% inhibition. Higher therefore signals weaker potency. In turn, B1 yielded an IC50 of about 700 nM.

B2 registered an IC50 of about 200 nM.

Regarding B3, the half-maximal inhibitory concentration (IC50) was determined as 13 nM.

In turn, B4 gave an IC50 of 33 nM. Same read-out and setting: next, B5: 0.8 nM. B6 showed an IC50 of 1.9 nM. This IC50 is about 2.4-fold higher than that of the molecule before.

The target in another assay is T2, human Ang-2 (human, UniProt O15123).
T2 chain: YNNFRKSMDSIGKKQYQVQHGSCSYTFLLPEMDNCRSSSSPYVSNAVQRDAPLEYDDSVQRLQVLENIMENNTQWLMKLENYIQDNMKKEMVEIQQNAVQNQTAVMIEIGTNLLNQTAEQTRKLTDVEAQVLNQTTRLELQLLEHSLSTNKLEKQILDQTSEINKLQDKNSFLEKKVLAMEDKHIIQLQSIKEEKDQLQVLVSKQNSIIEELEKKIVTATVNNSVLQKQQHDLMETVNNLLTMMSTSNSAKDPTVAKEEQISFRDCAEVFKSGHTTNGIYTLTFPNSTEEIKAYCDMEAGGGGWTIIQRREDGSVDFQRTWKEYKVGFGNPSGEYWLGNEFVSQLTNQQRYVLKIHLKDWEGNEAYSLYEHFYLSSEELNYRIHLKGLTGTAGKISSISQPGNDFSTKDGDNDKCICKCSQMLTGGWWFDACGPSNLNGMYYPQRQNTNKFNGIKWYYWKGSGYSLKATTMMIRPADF
The experiment in a line: competition ELISA vs Tie-2.
Turning to B7, the IC50 was determined as 0.07 nM. This lies in the picomolar range. Still for that read-out and setting: with B8 the figure was 0.08 nM; with B9, 8.42 nM. With B10, the IC50 came out at 0.06 nM. For B11, the IC50 was 2.05 nM. On the same count and under the same terms, with B12 the figure was 0.05 nM.

B13 displayed an IC50 of 0.04 nM. Regarding B14, the IC50 came to 0.04 nM. In other words, the picomolar range. The same measure, in the same setting: with B15 the figure was 8.6 nM; with B16, 1.41 nM. Consider B17, for which the IC50 turned out to be 2.68 nM. This IC50 lies about 1.9-fold higher than the previous one. Same read-out and setting: next, B18: 15 nM; B19: 0.03 nM.

For the molecule B20, the IC50 stood at 0.95 nM. The same measure, in the same setting: next, B21: 1.56 nM; B22: 0.16 nM; B23: over 1000 nM. Molecule B24 registered an IC50 of 1.62 nM. B25 gave an IC50 of 0.05 nM. Against the preceding molecule, the IC50 is about 32-fold lower. Still for that read-out and setting: with B26 the figure was 0.09 nM.

A further assay deals with T3, human Ang-1 (human, UniProt Q15389).
T3 chain: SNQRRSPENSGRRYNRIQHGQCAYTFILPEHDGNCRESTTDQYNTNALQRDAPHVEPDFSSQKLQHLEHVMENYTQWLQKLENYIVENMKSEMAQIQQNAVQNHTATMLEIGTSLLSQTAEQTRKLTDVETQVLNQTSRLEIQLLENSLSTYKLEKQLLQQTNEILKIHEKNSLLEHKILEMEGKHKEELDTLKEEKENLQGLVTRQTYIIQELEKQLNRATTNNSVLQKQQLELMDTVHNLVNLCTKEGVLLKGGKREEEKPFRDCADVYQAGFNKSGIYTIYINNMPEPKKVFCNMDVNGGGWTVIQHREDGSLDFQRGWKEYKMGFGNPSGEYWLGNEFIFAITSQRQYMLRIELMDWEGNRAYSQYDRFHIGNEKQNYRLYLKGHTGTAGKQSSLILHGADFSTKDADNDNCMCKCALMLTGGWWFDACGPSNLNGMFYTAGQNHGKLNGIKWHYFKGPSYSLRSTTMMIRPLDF
Description: competition ELISA vs Tie-2. For orientation: An ELISA detects its analyte on a solid surface through an enzyme-linked reagent.
In turn, B1 showed an IC50 of over 1000 nM.

Molecule B2 had an IC50 of over 1000 nM. On the same count and under the same terms, with B3 the figure was over 1000 nM. With B4, the IC50 was over 1000 nM.

The next assay concerns the target T2, human Ang-2. Description: competition ELISA vs Tie-2. This is another data set of the same source.
On to B1, for which the IC50 amounted to 80 nM.

On to B2, for which the IC50 turned out to be 26 nM. B3 gave an IC50 of 9 nM. Compared with the last molecule, the IC50 is about 2.9-fold lower. On the same count and under the same terms, next, B4: 45 nM; B5: 0.65 nM.
